From patent US20220378887A1 (GENOIMMUNE THERAPEUTICS, published 2022)

B1: TTAPFLSGK polypeptide (CTNNB1; SEQ ID NO: 9) (peptide)
peptide: TTAPFLSGK
notes: Synthesized mutant neoantigen peptide; also called high-frequency mutant polypeptide
B2: STIDESPIFK polypeptide (GLCE; SEQ ID NO: 7) (peptide)
peptide: STIDESPIFK
notes: as for B1
B3: RTIEQLTLK polypeptide (ARHGEF11; SEQ ID NO: 8) (peptide)
peptide: RTIEQLTLK
notes: as for B1
B4: VVVGAGDVGK polypeptide (KRAS; SEQ ID NO: 15) (peptide)
peptide: VVVGAGDVGK
notes: Synthesized mutant KRAS neoantigen peptide; also called high-frequency mutant polypeptide

Target: T1, HLA-A*11:01 (MHC-I molecules on the surfaces of T2 cells) (human)
T1 construct: It only names the antibody against 'the corresponding HLA typing (HLA-A*11:01)'; also called HLA molecules
Test: T2 cell MHC-I stabilisation assay, flow cytometry with FITC anti-HLA-A*11:01 antibody

Row | Binder | FI (fluorescence index)
1 | B1 | 1.02
2 | B2 | 4.09
3 | B3 | 1.57
4 | B4 | 1.66
